According to PMC7786285 (Frontiers in Immunology, 2020):

Target: T1, EGFR-ECD-Fc chimera (Homo sapiens, UniProt P00533)
T1 construct: extracellular domain of the epidermal growth factor receptor, as Fc chimera; No catalogue number printed; detected through its Fc with a goat anti-human IgG Fc PE antibody; also called EGFR-Fc chimera; EGFR-Fc; source: bought: R&D
Assay: flow cytometry on cells; yeast cells displaying chimeric Fabs stained with EGFR-ECD-Fc chimera (100, 10 and 1 nM; sorting 250 nM down to 1 nM), detected with goat anti-human IgG Fc PE
Conditions: one partner purified

B1: FEB4 VH paired with the VL of H1, Fab displayed on yeast (Fab, V domains shown)
VH: AVTLDESGGGLQTPGGALSLVCKASGFTFSSHGMLWVRQAPGKGLEFVAGISTDGSSTSYGAPVKGRATISRDNGQSTVRLQLNNLRAEDTGTYYCAKDAYRCRNCAEDIDAWGHGTEVIVSS
VL: ALTQPSSVSANPGETVKITCSGGYSYYGWIQQKSPGSAPVTLIYNNDNRPSGIPSRFSGSTSGSTSTLTITGVQAEDEAVYYCGSYDGSAGIFGAGTTLTVL
  binding result: binds

B2: FEB4 VH paired with the VL of H3, Fab displayed on yeast (Fab, V domains shown)
VH: B1 VH
VL: ALTQPSSVSANPGETVEITCSGGGSNSYYGWYQQKAPGSAPVTVIYDNTNRPSNIPSRFSGSLSDSTNTLTITGVQADDEAVYFCGNEDNTDSYVGIFGAGTTLTVL
  binding result: binds
